Where two headings read alike, the source gives them in different places.

Data on three molecules can be found in US20160244740A1, “MUTANT CHON[…] I COMPOSITIONS AND METHODS OF THEIR USE” (OHIO STATE INNOVATION FOUNDATION, priority 2013, published 2016).

For data set [1] the following is noted: in vivo; cited from earlier work.
The test system of data set [2] is subcutaneous tumors. The note with it: with adenovirus; cited from earlier work.
In data set [3] the test system is U87ΔEGFR human glioma spheroids. Kind of data set: oHSV spread in organotypic glioma model in presence/absence of Chase ABC. Conditions: 10^4 pfus of rQNestin34.5, presence vs absence of purified Chase ABC, n=3/group. The data set is classed as cell-based. As for the experimental part:
Briefly U87delta EGFR glioma cell line spheroids on Organotypic brain slice cultures were treated with or without purified Chase and then infected with OV. […] Gli36ΔEGFR mice were inoculated with 1×10^6 viral particles on six days (shown by arrows), and percent survival (FIG. 15A) and tumor volume were followed over the course of the study. U87ΔEGFR mice were also inoculated with 1×10^6 viral particles on six days (shown by arrows), and percent survival (FIG. 15B) and tumor volume were followed over the course of the study. U87ΔEGFR mice were also inoculated with 3×10^5 viral particles once ten days after cell implantation (shown by arrow), and percent survival (FIG. 15C) was followed over the course of the study.
As a preliminary result, the effect of Chase ABC treatment on spread by the rQNestin34.5 oHSV was tested in an organotypic glioma model. Briefly, U87ΔEGFR human glioma spheroids (made by the hanging drop method), grown on 300-μm organotypic brain slices from 5-7-day-old mice, were infected with 10^4 pfus of rQNestin34.5, in the presence/absence of Chase ABC. Spread of oHSV in the spheres was visualized by fluorescent imaging of oHSV encoded GFP in infected cells (n=3/group).

Data set [4] concerns glioma cells. Nature of the data set: Effect of Chase ABC treatment of glioma cells in vitro on oHSV infection/replication. The data set is classed as cell-based. From the text:
The tumor's extracellular matrix (ECM) can pose a significant barrier for efficient viral spread, thus limiting virotherapy efficacy. Chondroitin sulfate proteoglycans (CSPG) are one of the major components of glioma ECM. Choindroitinase ABC 1 (Chase ABC) is a bacterial enzyme that can depolymerize this ECM scaffold. Chase ABC mediated digestion of glioma CSPG can enhance oHSV dissemination and efficacy. […] This study examines the mechanism and impact of Chase ABC on oncolysis. Reduced virus replication can contribute to limited oncolytic efficacy of oHSV. Several innovative approaches are currently under investigation including transcriptional retargeting of viruses to drive virulence under the control of tumor-specific promoters. rQNestin34.5 is an oHSV that expresses viral ICP34.5 regulated by glioma-specific nestin promoter in an ICP34.5 deleted viral backbone. […] An oHSV expressing the humanized sequence of Chase ABC within the context of rQNestin34.5 can be used. […] The anti-tumor efficacy of the Chase ABC-expressing oHSV in vitro and in vivo, in glioma can be tested. The impact of the Chase ABC-expressing oHSV on tumor immune cell infiltration and responses can also be tested.

For data set [5] the following is noted: cited from earlier work; for toxicity/hemorrhages/glial reactivity: repeated injections into brains and spinal cords.

For collagenase, in data set [1], the intratumoral hemorrhages result is given as “intratumoral hemorrhages occurred in many tumors”.
Turning to hyaluronidase, the “viral spread and therapeutic efficacy” value in data set [2] was “increased viral spread and therapeutic efficacy”.

B1: Chase ABC: bacterial enzyme, chondroitin-sulfate-ABC endolyase; bacterially produced and purified (Seikagaku Inc) (protein, UniProt P59807 25-1021, looked up)
Chondroitin sulfate ABC …: ATSNPAFDPKNLMQSEIYHFAQNNPLADFSSDKNSILTLSDKRSIMGNQSLLWKWKGGSSFTLHKKLIVPTDKEASKAWGRSSTPVFSFWLYNEKPIDGYLTIDFGEKLISTSEAQAGFKVKLDFTGWRAVGVSLNNDLENREMTLNATNTSSDGTQDSIGRSLGAKVDSIRFKAPSNVSQGEIYIDRIMFSVDDARYQWSDYQVKTRLSEPEIQFHNVKPQLPVTPENLAAIDLIRQRLINEFVGGEKETNLALEENISKLKSDFDALNIHTLANGGTQGRHLITDKQIIIYQPENLNSQDKQLFDNYVILGNYTTLMFNISRAYVLEKDPTQKAQLKQMYLLMTKHLLDQGFVKGSALVTTHHWGYSSRWWYISTLLMSDALKEANLQTQVYDSLLWYSREFKSSFDMKVSADSSDLDYFNTLSRQHLALLLLEPDDQKRINLVNTFSHYITGALTQVPPGGKDGLRPDGTAWRHEGNYPGYSFPAFKNASQLIYLLRDTPFSVGESGWNNLKKAMVSAWIYSNPEVGLPLAGRHPFNSPSLKSVAQGYYWLAMSAKSSPDKTLASIYLAISDKTQNESTAIFGETITPASLPQGFYAFNGGAFGIHRWQDKMVTLKAYNTNVWSSEIYNKDNRYGRYQSHGVAQIVSNGSQLSQGYQQEGWDWNRMQGATTIHLPLKDLDSPKPHTLMQRGERGFSGTSSLEGQYGMMAFDLIYPANLERFDPNFTAKKSVLAADNHLIFIGSNINSSDKNKNVETTLFQHAITPTLNTLWINGQKIENMPYQTTLQQGDWLIDSNGNGYLITQAEKVNVSRQHQVSAENKNRQPTEGNFSSAWIDHSTRPKDASYEYMVFLDATPEKMGEMAQKFRENNGLYQVLRKDKDVHIILDKLSNVTGYAFYQPASIEDKWIKKVNKPAIVMTHRQKDTLIVSAVTPDLNMTRQKAATPVTINVTINGKWQSADKNSEVKYQVSGDNTELTFTSYFGIPQEIKLSPLP
On to B1, for which the “oHSV spread in spheres (GFP imaging)” value in data set [3] is on record as “increase in viral spread”; in data set [3] (listed as purified Chase ABC), “increased oHSV spread within all three glioma spheroids”. Besides, the oHSV infection/replication result in data set [4] was “does not negatively affect oHSV infection/replication”. In data set [5] (intracerebral injections, immediately or after five months of treatment), the “loss of neurons, alterations of their structure, reactions of glial cells” value is on record as “did not reveal loss of neurons or alterations of their structure nor reactions of glial cells”. Besides, the toxicity/hemorrhages/glial reactivity entry is on record as “have not been associated with deleterious effects” in data set [5] and “absence of toxicity/hemorrhages/glial reactivity” in data set [5] (listed as purified Chase ABC).
